Assays:
[1] = system: hippocampal neuronal cells; assay: Immunohistological staining of brain specimens with anti-NeuN antibody (neuronal cell counts); type: in vivo, SAMP8 mice; settings: after 30th intranasal administration of exendin-4 ± L-penetratin ± insulin; 38 weeks of age; n = 4–8
Procedure: At 15 min after administration, blood samples were taken from the left jugular vein. Immediately after blood withdrawal, the abdominal cavity was opened, and the intravascular content in the brain was flushed by perfusion of ice-cold PBS (pH 7.4) into the left ventricle of the heart at 5.5 mL/min for 5 min using a peristaltic pump (ATTO Corp.). Right afterwards, the brain was fixed by perfusion of ice-cold 4% PFA into the brain at 5.5 mL/min for 10 min. Subsequently, the whole brain was carefully isolated and washed with ice-cold PBS (pH 7.4) and weighed after removal of the water content.
The right side of the brain obtained as described above was immersed in 4% PFA for 24 h and then moved to ice-cold PBS (pH 7.4) and stored at 4 °C. After removing the PBS, the brain was trimmed coronally to obtain 3-mm slices at the position of Bregma −1.5 mm. […]
A thin slice at Bregma −2.0 mm was obtained and mounted on a glass slide, deparaffinized, and immersed in citrate buffer for 40 min in a water bath at 98 °C to activate the antigen. […] The stained brain tissue was observed by microscopy (Olympus BX51 and DP71), and the NeuN-positive cell numbers in the hippocampus were analyzed using WinROOF (Mitani Corp., Tokyo, Japan). […]

[2] = up to 60 min after 29th intranasal administration of exendin-4 and insulin with L-penetratin; tail vein, glucose meter
Procedure: (§1) Every morning at 10 AM, mice were anesthetized by an i.p. injection of sodium pentobarbital (50 mg/kg), and restrained in a supine position. […] The untreated control SAMP8 and SAMR1 received intranasal administration of only the vehicle (PBS pH 6.0). After each administration, mice were kept in a supine position for 15 min and then returned to their cages.
Blood was obtained from the tail vein before and 15, 30, and 60 min after administration, and the blood glucose concentration was measured using a glucose meter (One Touch Ultra View, Johnson & Johnson K.K., Tokyo, Japan).

[3] = 15 min after 30th intranasal administration of exendin-4 1 mg/mL, L-penetratin 2 mM and insulin 8 IU/mL (1 IU/kg)
Procedure: as §1

[4] = Appearance of mixed solution of peptide drug and penetratin; type: physicochemical; settings: peptide drug 2.5 mg/mL plus L- or D-penetratin 2.0 mM in PBS pH 6.0 with 0.001% methylcellulose; visual

Row | Substance | NeuN-positive hippocampal neuronal cell counts [1] | blood glucose level [2] | insulin level in plasma ([3]; ELISA, mean ± SEM) | brain concentration of insulin ([3]; human insulin ultrasensitive ELISA) | appearance of solution after mixing [4]
1 | insulin: Recombinant human insulin (27.5 IU/mg), Wako | no proliferation effect | > 70 mg/dL | 41.1 ± 11.8 μU/mL | less than the lower detection limit | –
2 | HAEGTFTSDVSSYLEGQAAKEFIAWLVKGR-NH2 [GLP-1, glucagon-like peptide-1, incretin peptide, synthesized by Sigma-Genosys] | – | – | – | – | clear
